Results published in patent US7838231 (REGENTS OF THE UNIVERSITY OF MICHIGAN, dated 2010).

How the values were obtained:
Test in all cases: direct yeast two-hybrid assay
[1] = biological target: T1, NPHP4, human full length, yeast two-hybrid prey (human, UniProt O75161 1-1426)
T1 construct: also called nephroretinin; nephrocystin-4
T1 sequence: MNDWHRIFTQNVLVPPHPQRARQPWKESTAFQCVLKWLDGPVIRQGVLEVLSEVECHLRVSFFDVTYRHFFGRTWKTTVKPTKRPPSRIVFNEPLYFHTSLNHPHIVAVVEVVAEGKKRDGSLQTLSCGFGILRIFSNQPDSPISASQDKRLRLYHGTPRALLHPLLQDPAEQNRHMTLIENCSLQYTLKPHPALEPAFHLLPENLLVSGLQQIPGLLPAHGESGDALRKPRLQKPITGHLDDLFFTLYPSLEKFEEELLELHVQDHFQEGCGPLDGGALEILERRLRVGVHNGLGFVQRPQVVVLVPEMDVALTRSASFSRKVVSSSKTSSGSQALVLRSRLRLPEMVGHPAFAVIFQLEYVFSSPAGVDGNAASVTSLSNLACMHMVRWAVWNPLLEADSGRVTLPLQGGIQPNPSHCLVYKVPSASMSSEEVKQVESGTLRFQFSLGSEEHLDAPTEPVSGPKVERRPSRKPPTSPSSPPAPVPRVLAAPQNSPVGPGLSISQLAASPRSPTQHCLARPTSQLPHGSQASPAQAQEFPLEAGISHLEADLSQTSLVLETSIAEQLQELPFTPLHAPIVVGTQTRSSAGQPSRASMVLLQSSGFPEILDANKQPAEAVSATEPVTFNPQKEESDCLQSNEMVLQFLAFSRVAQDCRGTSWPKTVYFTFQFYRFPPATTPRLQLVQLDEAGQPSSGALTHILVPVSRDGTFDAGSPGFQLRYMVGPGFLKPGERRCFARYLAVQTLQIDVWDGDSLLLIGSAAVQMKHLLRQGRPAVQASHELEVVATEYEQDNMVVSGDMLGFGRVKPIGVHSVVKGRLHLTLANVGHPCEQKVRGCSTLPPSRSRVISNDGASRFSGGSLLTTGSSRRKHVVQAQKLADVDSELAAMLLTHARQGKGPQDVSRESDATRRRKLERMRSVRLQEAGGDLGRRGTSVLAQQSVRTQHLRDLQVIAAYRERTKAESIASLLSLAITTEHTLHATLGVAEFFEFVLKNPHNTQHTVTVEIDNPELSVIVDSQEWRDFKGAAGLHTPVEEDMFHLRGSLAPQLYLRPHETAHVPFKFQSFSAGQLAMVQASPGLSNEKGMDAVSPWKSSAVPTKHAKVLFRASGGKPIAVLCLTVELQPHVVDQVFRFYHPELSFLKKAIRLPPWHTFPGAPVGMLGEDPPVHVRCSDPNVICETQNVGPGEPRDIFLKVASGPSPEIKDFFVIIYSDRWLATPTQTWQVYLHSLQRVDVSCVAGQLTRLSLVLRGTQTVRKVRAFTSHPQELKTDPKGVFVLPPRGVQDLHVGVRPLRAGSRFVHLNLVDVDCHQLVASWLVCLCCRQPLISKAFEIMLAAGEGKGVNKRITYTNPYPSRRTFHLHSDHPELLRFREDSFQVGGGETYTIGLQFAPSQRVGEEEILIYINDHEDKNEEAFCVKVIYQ

[2] = biological target: T2, BBS2, human full length, yeast two-hybrid prey (human, UniProt Q9BXC9 1-721)
T2 sequence (looked up): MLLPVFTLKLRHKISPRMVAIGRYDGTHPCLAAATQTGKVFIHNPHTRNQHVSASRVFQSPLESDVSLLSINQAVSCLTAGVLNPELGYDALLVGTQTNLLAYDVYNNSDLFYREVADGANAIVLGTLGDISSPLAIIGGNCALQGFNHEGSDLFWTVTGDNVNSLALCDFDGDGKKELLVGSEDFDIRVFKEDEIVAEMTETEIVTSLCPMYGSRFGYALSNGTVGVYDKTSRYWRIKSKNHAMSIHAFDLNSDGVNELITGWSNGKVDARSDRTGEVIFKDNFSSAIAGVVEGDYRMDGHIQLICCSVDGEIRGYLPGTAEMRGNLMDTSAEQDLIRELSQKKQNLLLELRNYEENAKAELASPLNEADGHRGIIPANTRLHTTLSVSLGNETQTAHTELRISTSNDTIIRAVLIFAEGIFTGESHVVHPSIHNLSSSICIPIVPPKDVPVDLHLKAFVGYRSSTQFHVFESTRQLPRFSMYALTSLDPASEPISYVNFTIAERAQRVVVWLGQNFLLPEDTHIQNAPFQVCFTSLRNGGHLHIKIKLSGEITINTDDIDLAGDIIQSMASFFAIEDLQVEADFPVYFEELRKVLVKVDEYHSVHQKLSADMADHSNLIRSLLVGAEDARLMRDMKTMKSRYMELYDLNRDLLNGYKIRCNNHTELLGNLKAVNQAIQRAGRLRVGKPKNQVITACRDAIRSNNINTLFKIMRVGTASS

[3] = biological target: T3, RPGR (non-ORF15 containing isoform), human full length, yeast two-hybrid prey (human, UniProt Q92834-2 1-815)
T3 construct: also called non-ORF15 containing RPGR isoform
T3 sequence (looked up): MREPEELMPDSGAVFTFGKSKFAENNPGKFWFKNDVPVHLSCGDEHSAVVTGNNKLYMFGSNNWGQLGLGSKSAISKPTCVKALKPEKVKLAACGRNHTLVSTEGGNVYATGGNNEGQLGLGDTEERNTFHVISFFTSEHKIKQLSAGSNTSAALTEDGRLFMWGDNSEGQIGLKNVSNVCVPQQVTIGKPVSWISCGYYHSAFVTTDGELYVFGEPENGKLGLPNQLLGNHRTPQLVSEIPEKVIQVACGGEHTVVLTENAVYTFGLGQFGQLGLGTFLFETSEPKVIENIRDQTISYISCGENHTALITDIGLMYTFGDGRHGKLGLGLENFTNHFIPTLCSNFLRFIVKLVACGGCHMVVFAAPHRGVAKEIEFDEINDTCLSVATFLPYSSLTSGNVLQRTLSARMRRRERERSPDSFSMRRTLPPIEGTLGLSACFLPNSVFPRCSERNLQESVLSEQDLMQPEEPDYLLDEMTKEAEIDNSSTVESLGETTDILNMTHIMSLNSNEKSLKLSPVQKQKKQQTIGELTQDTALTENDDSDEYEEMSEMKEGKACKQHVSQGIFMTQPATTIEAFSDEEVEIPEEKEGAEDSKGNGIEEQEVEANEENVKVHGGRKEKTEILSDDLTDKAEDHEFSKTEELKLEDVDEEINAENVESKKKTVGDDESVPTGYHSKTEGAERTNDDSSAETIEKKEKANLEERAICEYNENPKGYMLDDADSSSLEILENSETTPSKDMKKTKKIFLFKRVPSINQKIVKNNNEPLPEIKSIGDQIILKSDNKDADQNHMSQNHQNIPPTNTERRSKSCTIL

binding result [1]: no binding | binding result [2]: no binding | binding result [3]: no binding
B1: full-length human nephrocystin-5 (NPHP5), yeast two-hybrid fusion (other, not shown: small tags and cut ends)
chain: MKPTGTDPRILSIAAEVAKSPEQNVPVILLKLKEIINITPLGSSELKKIKQDIYCYDLIQYCLLVLSQDYSRIQGGWTTISQLTQILSHCCVGLEPGEDAEEFYNELLPSAAENFLVLGRQLQTCFINAAKAEEKDELLHFFQIVTDSLFWLLGGHVELIQNVLQSDHFLHLLQADNVQIGSAVMMMLQNILQINSGDLLRIGRKALYSILDEVIFKLFSTPSPVIRSTATKLLLLMAESHQEILILLRQSTCYKGLRRLLSKQETGTEFSQELRQLVGLLSPMVYQEVEEQKLHQAACLIQAYWKGFQTRKRLKKLPSAVIALQRSFRSKRSKMLLEINRQKEEEDLKLQLQLQRQRAMRLSRELQLSMLEIVHPGQVEKHYREMEEKSALNIQKHWRGYRERKNFHQQRQSLIEYKAAVTLQRAALKFLAKCRKKKKLFAPWRGLQELTDARRVELKKRVDDYVRRHLGSPMSDVVSRELHAQAQERLQHYFMGRALEERAQQHREALIAQISTNVEQLMKAPSLKEAEGKEPELFLSRSRPVAAKAKQAHLTTLKHIQAPWWKKLGEESGDEIDVPKDELSIELENLFIGGTKPP
notes: Full-length NPHP5 cDNA (598 amino acid residues) fused to a GAL4 domain; also called KIAA0036
